Reference: ChEMBL document CHEMBL1152109, “Synthesis and biological evaluation of a new series of dihydrofolate reductase inhibitors based on the 4-(2,6-diamino-5-pyrimidinyl)alkyl-L-glutamic acid structure” (Bioorg Med Chem Lett, 1996)

Columns and labels:
[1] = Ratio of Vmax/Km was evaluated.
Dihydrofolate reductase = biological target: T1, Dihydrofolate reductase (Homo sapiens, UniProt P00374); test: Binding affinity against Recombinant human dihydrofolate reductase (DHFR)
T1 sequence (P00374 whole entry): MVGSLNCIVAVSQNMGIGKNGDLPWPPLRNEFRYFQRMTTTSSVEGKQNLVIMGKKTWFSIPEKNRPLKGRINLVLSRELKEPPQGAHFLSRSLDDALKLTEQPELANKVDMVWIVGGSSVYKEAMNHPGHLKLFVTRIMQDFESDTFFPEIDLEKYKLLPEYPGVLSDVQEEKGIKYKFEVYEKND

[2] = Binding affinity against human monofunctional glycinamide ribonucleotide formyl transferase (GARFT).
Thymidylate synthase [3] = biological target: T2, Thymidylate synthase (Homo sapiens, UniProt P04818); test: Binding affinity against Recombinant human thymidylate synthase (TS).
T2 sequence (P04818 whole entry): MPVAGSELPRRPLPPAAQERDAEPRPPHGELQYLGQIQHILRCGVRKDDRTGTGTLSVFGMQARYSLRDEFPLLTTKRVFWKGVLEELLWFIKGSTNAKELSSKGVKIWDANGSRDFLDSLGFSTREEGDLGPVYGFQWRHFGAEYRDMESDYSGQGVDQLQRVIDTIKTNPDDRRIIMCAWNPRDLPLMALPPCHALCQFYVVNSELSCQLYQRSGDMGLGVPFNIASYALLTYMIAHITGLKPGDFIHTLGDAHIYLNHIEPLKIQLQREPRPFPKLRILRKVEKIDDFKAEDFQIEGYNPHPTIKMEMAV

[4] = Binding affinity against human monofunctional glycinamide ribonucleotide formyl transferase (GARFT)
Thymidylate synthase [5] = biological target: T2, Thymidylate synthase; test: Binding affinity against Recombinant human thymidylate synthase (TS)
[6] = substrate: CN(Cc1cnc2nc(N)nc(N)c2n1)c1ccc(C(=O)N[C@@H](CCC(=O)O)C(=O)O)cc1; test: (§1) Substrate activity against folyl-poly-glutamate synthetase isolated from hog liver; conditions: Sus scrofa
[7] = substrate: Nc1nc2[nH]cc(CCc3ccc(C(=O)N[C@@H](CCC(=O)O)C(=O)O)cc3)c2c(=O)[nH]1; test: as §1; conditions: Sus scrofa
[8] = substrate: Nc1nc2c(c(=O)[nH]1)C[C@@H](CCc1ccc(C(=O)N[C@@H](CCC(=O)O)C(=O)O)cc1)CN2; test: as §1; conditions: Sus scrofa
[9] = substrate: Nc1ncc(CCCCc2ccc(C(=O)N[C@@H](CCC(=O)O)C(=O)O)cc2)c(N)n1; test: as §1; conditions: Sus scrofa
[10] = substrate: Nc1ncc(CCCc2ccc(C(=O)N[C@@H](CCC(=O)O)C(=O)O)cc2)c(N)n1; test: as §1; conditions: Sus scrofa
[11] = substrate: CCC(Cc1cnc2nc(N)nc(N)c2n1)c1ccc(C(=O)N[C@@H](CCC(=O)O)C(=O)O)cc1; test: Substrate activity against folyl-poly-glutamate synthetase (FPGS) (isolated from hog liver).; conditions: Sus scrofa

For `Nc1nc2c(c(=O)[nH]1)CC(CCc1ccc(C(=O)N[C@@H](CCC(=O)O)C(=O)O)cc1)CN2` (single isomer, unassigned), the Ratio [1] was 60.

With `Nc1ncc(CCCCc2ccc(C(=O)N[C@@H](CCC(=O)O)C(=O)O)cc2)c(N)n1` the Ki (Dihydrofolate reductase) was 0.005 nM, the Ki [2] was 62 µM and the Ki (Thymidylate synthase [3]) was > 5 µM. It also gave a Ratio [1] of 34.

Molecule `CCC(Cc1cnc2nc(N)nc(N)c2n1)c1ccc(C(=O)N[C@@H](CCC(=O)O)C(=O)O)cc1` (stereo partly drawn) has a Ratio [1] of 19.

`Nc1nc2[nH]cc(CCc3ccc(C(=O)N[C@@H](CCC(=O)O)C(=O)O)cc3)c2c(=O)[nH]1` gave a Ratio [1] of 381.

`CN(Cc1cnc2nc(N)nc(N)c2n1)c1ccc(C(=O)N[C@@H](CCC(=O)O)C(=O)O)cc1` gave a Ratio [1] of 4.3.

In the case of `Nc1ncc(CCCc2ccc(C(=O)N[C@@H](CCC(=O)O)C(=O)O)cc2)c(N)n1`, the Ki (Dihydrofolate reductase) is reported as 0.12 nM, the Ki [4] is reported as 54.3 µM and the Ki (Thymidylate synthase [5]) is reported as > 5 µM.

B1: Folylpolyglutamate synthase, mitochondrial (Homo sapiens), Q05932 (protein)
chain: MSRARSHLRAALFLAAASARGITTQVAARRGLSAWPVPQEPSMEYQDAVRMLNTLQTNAGYLEQVKRQRGDPQTQLEAMELYLARSGLQVEDLDRLNIIHVTGTKGKGSTCAFTECILRSYGLKTGFFSSPHLVQVRERIRINGQPISPELFTKYFWRLYHRLEETKDGSCVSMPPYFRFLTLMAFHVFLQEKVDLAVVEVGIGGAYDCTNIIRKPVVCGVSSLGIDHTSLLGDTVEKIAWQKGGIFKQGVPAFTVLQPEGPLAVLRDRAQQISCPLYLCPMLEALEEGGPPLTLGLEGEHQRSNAALALQLAHCWLQRQDRHGAGEPKASRPGLLWQLPLAPVFQPTSHMRLGLRNTEWPGRTQVLRRGPLTWYLDGAHTASSAQACVRWFRQALQGRERPSGGPEVRVLLFNATGDRDPAALLKLLQPCQFDYAVFCPNLTEVSSTGNADQQNFTVTLDQVLLRCLEHQQHWNHLDEEQASPDLWSAPSPEPGGSASLLLAPHPPHTCSASSLVFSCISHALQWISQGRDPIFQPPSPPKGLLTHPVAHSGASILREAAAIHVLVTGSLHLVGGVLKLLEPALSQ
B1 showed a Km [6] of 116 µM, a Vmax [6] of 498 nM/h/mg and a Km [7] of 1.9 µM. It also gave a Vmax [7] of 725 nM/h/mg, a Km [8] of 16.4 µM and a Vmax [8] of 977 nM/h/mg. For the same molecule, the Km [9] was 20 µM, the Vmax [9] was 685 nM/h/mg and the Km [10] was 5.1 µM. It also gave a Vmax [10] of 758 nM/h/mg, a Km [11] of 13.3 µM and a Vmax [11] of 258 nM/h/mg.
